Tests used:
[1] = test system: Pdx1-Cre GEMM model of PDAC; assay: Survival in Pdx1-Cre GEMM model of PDAC; type: in vivo, mouse; conditions: 5 mg/kg i.p. q5d
Description: FIGS. 12A-D. DKK3 expression in mouse PSCs and effects of treatment with DKKC mAb on survival. (FIG. 12A) Western blot analysis of recombinant human and mouse DKK3 under denaturing and non-denaturing conditions using JM6-6-1 mAb. (FIG. 12B) Expression of murine DKK3 in murine PSCs (MPSC) or 3T3 cells was determined by RT-PCR. 18S was used as loading control. (FIG. 12C) Proliferation of MPSCs treated with DKK3 mAb was measured at 7 days by MTS assay. ***p<0.001 vs. PBS. (FIG. 12D) Pdx1-Cre; Kras LSL-G12D;Trp53fl/+ model of PDAC was treated with DKK3 mAb JM6-6-1 or control mAb JM4-74 (5 mg/kg i.p. q5d). Kaplan-Meier survival curves are shown (log rank test). At 0% survival, the right line is JM6-6-1, the middle lines is PBS, and the left line is Control Ab.
Two GEMMs of PDAC that differ in the pancreas-specific promoter to target oncogenic Kras expression (Hingorani et al., 2005; Hingorani et al., 2003) were used in the experiments to evaluate the effect of DKK3 neutralizing mAb (Pdx1-Cre; Kras^LSL-G12D; Trp53^R172H/+ and P48-Cre; Kras^LSL-G12D; Trp53^fl/fl). To evaluate the effects of genetic ablation of DKK3 on pancreatic cancer development, DKK3-null mice were crossed to P48-Cre; Kras^LSL-G12D;Trp53^R172H or P48-Cre; Kras^LSL-G12D; Trp53^fl/fl mice (Hingorani et al., 2005; Hingorani et al., 2003), and the progeny were monitored until they were moribund. […]

BxPC3 orthotopic tumors = assay: Orthotopic BxPC3 tumors without HPSCs in nude mice; type: in vivo, mouse; conditions: BxPC3 alone; 5 mg/kg i.p. once every 5 days; vs PBS or isotype control mAb
Description: FIGS. 11A-C. DKK3 expression in autochthonous model of PDAC and effects of DKK3 mAb on cell surface binding of DKK3 and orthotopic model. (FIG. 11A) DKK3 expression was measured by qPCR in pancreatic tumors from P48-Cre; Kras LSL-G12D;Trp53fl/fl and P48-Cre; Kras LSL-G12D;Trp53fl/+ mice that are either wild type DKK3 or heterozygous or homozygous DKK3-null. Relative expression of DKK3 mRNA in DKK3+/− hetero mice is 53% of DKK3^+/+ mice. (FIG. 11B) DKK3 cell surface binding was assessed by incubating BxPC3 or L3.6p1 cells with His-tagged rhDKK3 (10 μg/ml) with or without JM6-6-1 (70 μg/ml) and positive cells were sorted by flow cytometry. (FIG. 11C) Mice bearing orthotopic BxPC3 tumors were treated with DKK3 mAb JM6-6-1 (5 mg/kg i.p. once every 5 days). Overall tumor progression was measured every 3-4 days by IVIS imaging.
An orthotopic nude mouse model of PDAC using BxPC3 cancer cells labeled with firefly luciferase (BxPC3-FL) co-injected with HPSCs has been previously described (Hwang et al., 2008). Mice received intrapancreatic injections of BxPC3-FL (1×10^6 per mouse) with HPSC-shControl or HPSC-shDKK3 in a tumor-to-stroma ratio of 1:0 or 1:3 in 50-μL of HBSS and tumor growth was monitored using IVIS imaging (Hwang et al., 2008). In addition, a syngeneic immunocompetent DKK3 null model was used, provided by Dr. C. […]

B1: JM6-6-1: monoclonal antibody against human DKK3; heavy chain variable SEQ ID NO: 19, light chain variable SEQ ID NO: 20 (antibody, V domains shown)
VH: EVKLVESGGGLVKPGGSLKLSCAASGFTFTIEYMAWIRQTPEKRLEWVASISSGGDDIYYADNVKGRFTISRDNAKNTLYLQMSSLKSEDTAIYYCSRSLSDWGQGTTLTVSSAKTTPPSDYPLA
VL: MTQTPLSLPVSLGDQASISCRSSQSILHSNGHTYLEWYLQKPGQSPKLLIYKVSNRFSGVPDRFSGSGSGTDFTLKISRVEAEDLGVYYCFQGSHVPFTFGSGTKLEIERADAAQ
Question: Which effect on survival [1] does the source give for B1 here?
Answer: Its effect on survival is “equally effective”.

Question: And the “tumor response without HPSCs” value (BxPC3 orthotopic tumors)?
Answer: The value was “no significant change”.
